Test results published in the DeepSol protein solubility set.

assay: soluble on expression in E. coli; label from the status in PepcDB or PDB records

**Q.** Which “soluble on expression in E. coli” value does the source give for “IAPTVWKLADRSKIYMADLESALHYILRIEVGRFPVLEGQRLVALKKFVAVLAKYFPGRPLVQNFLHSVNEWLKRQKRNKIPYSFFKTALDDRKEGAVLAKKVNWIGCQGSEPHFRGFPCSLWVLFHFLTVQAARQNVDHSQEAAKAKEVLPAIRGYVHYFFGCRDCASHFEQMAAASMHRVGSPNAAVLWLWSSHNRVNARLAGAPSEDPQFPKVQWPPRELCSACHNERLDVPVWDVEATLNFLKAHFSPSNIILDFPA” here?
**A.** soluble

**Q.** For “IDHIEVLRDGASARYGSDAIAGVINIILKSADHGGSISSKYGQYKKGDGIQRQVSGNTGFALGDNGTLNLSGEGANNDYTNRAGDDLRASSIGSTTYGQQVFRQGEPETHEGKLQYNAEYSFNDAAEFYSFGGYSKRRGETAAFYRPSNASNNIAAIYPNGYLPLIHGTLEDTTFVTGLRGELADDWHYDLSANYGKNSYELRTKTINTSLGLNTPRSFDNGTLTNDQKQLSLDLSREFNATWLPYPVSVAFGAEYLRQGYQIEAGQAESYFQTGSSGLGGFRAADAGSYSRHNFAQYLDVETNLTEKLGVSAAVRHEDYSDFGSNVSGSLSARYDFTP”, which “soluble on expression in E. coli” value is on record?
**A.** not soluble

**Q.** For “IGKVKYNLGFNLYDAKTKITKYNNETGLFGKDKNDKDTYRVGMELGEIWGYVTDRLYTVDDFDADGKLKAGIPKVEGYNPNPGDILYKDLDDNDIINGGTSTTKDPGDRKIIGNSTRRYQYGIHGGANWKGVSLSFLLQGVGKRDLWIMNDLFYPHYDAWTTVYDTQLNYWTPERTDSYFPRLYEKAAGNTAANTRIQTRYLQDGSYLSIRNITLSYNFPSKWMTKIGVNNLAVFFSGENLYTFDHLPKGLDPERSVTDDLGQRGFTYPYMRQYSFGINLSF”, which “soluble on expression in E. coli” value is on record?
**A.** not soluble

**Q.** For “IGQVKYNIGGSLSDAWSKVLELANNENVPNEGKNENRLIGMPRQALYVYQTDGIFQSADEVAAYYEKYYWNADHSGPKANNILPAPQEASTNTLRPGARKVVDLNGDGAITKDDLYYAGDMAPRLTFGFKLGLEWKGIDFSAFFQGVGKQVLLRGGYLAAPWTTNYVLQNKNFAGKMWSENNRDAEYTIASRDQNFNKWNYNNKDVSVQNNRYVRLKSLVVGYSLPQKWISKAGLSKLRVYFSGDDLWEWTKVKDGYDPEYGENSNNTFPFSRLLTFGVDVTF”, which “soluble on expression in E. coli” value is on record?
**A.** not soluble

**Q.** For “IKGSTDMDHSGFIQKFIALYGGLNKHTLHHLSEIYSYDVQFIDAVHEINGIDELTDYFTHLYTNLIECKFTIHHVIEDINLTQGEATLFWTMNYKHPKIGKGKSISVEGVSHIKFNDKVFYHRDFLDMGQMVYEHLPLIGPMVKFIKKRVQA”, which “soluble on expression in E. coli” value is on record?
**A.** soluble

**Q.** Which “soluble on expression in E. coli” value does the source give for “ILYLHGGYNTLQPSPFHWRLLDKLTLNTLHEVVLPIYPKSPDYHYLETFKAIRDVYNQLVEEVGANNIVMMGDGSGGGLALSFVQSLINDNQEVPRKLFLLSPLLDATLTNPNITKTLEENDILVSRFGVHQLMKSWTNDLPLSDARISPLYGTLKGLPPIYMYGGGREILSPDMHAFTHALEECGNDVEFKEYPKMVHDFPIYPIRQSHKVLKHITKSI” here?
**A.** not soluble

**Q.** For “IQQFNYGVRLVMSDNMQKILEYPNKTLSLGEKYYTGKTIGEIWGYKTIGIAQTQEEMDKHLANGGKPNWGSAWGAGDIMYANIDGKDGVNSGANTVNDHGDLKIIGNSTPRYNFGLTLDGSWKGLDFSLFIQGVMKRDYMLDGPYFWGANGGMWQSCVFKEHLDYWRPEGDPLGANTNAYYPKPYFSSNKNQKTQSGYLQNAAYCRLKNAQIGYTLPKAWTKKAAMESVRVYVSGDNLLTISGISDIFDPETLGGDWGPGKLYPLQRTISIGLNVNF”, which “soluble on expression in E. coli” value is on record?
**A.** not soluble

**Q.** With “IVGGQECKDGECPWQALLINEENEGFCGGTILSEFYILTAAHCLYQAKRFKVRVGDRNTEQEEGGEAVHEVEVVIKHNRFTKETYDFDIAVLRLKTPITFRMNVAPACLPERDWAESTLMTQKTGIVSGFGRTHEKGRQSTRLKMLEVPYVDRNSCKLSSSFIITQNMFCAGYDTKQEDACQGDSGGPHVTRFKDTYFVTGIVSWGEGCARKGKYGIYTKVTAFLKWIDRSMKTRGLPKAKSHAPEVITSSPLK” as the sequence, how does the “soluble on expression in E. coli” value read?
**A.** soluble

**Q.** Which “soluble on expression in E. coli” value does the source give for “IVMADWLKIRGTLKSWTKLWCVLKPGVLLIYKTQKNGQWVGTVLLNACEIIERPSKKDGFCFKLFHPLEQSIWAVKGPKGEAVGSITQPLPSSYLIIRATSESDGRCWMDALELALK” here?
**A.** soluble

**Q.** Which “soluble on expression in E. coli” value does the source give for “IVPTRELENVFLGRCKDYEITRYLDILPRVRSDCSALWKDFFKAFSFKNPCDLDLGSYKDFFTSAQQQLPKNKVMFWSGVYDEAHDYANTGRKYITLEDTLPGYMLNSLVWCGQRANPGFNEKVCPDFKTCPVQARESFWGMASSSYAHSAEGEVTYMVDGSNPKVPAYRPDSFFGKYALPNLTNKVTRVKVIVLHRLGEKIIEKCGAGSLLDLEKLVKAKHFAFDCVENPRAVLFLLCSDNPNARECRLAKRFYRIA” here?
**A.** soluble

**Q.** With “KASDQFIVYRASIAGPTMIAGYHWFNERGRDILIALPGLALVPQRFDLAKGVLRTFRHYYRHGLMPNVFPDADGEPLYNSIDAALWWVETLGLYLEATQDWEFLAEQFSVVQQIHKAFVGGTHYNIQVDAIDGLISWDARGVALTWMDVVIGANPVTPRHGKPVEINALWYSALCWLSRWAERLSSLELGDPVRLTKQAQRYALQAEKVKTSLQKFWNPQLGYLYDTIEPDDRRNFQIRPNAVLALSLHHCGFSAQQGSQILDLATISLLTPYGLRSLDPGDPEYKGRYEGNQEQRDRAYHQGTVWGWLIGPYIRAWQRFYPEQSLPFDWQPLLDHFLSGACLGSISEIFDGDAPHTPRGAIAQAWSVAEIIRHIQK” as the sequence, how does the “soluble on expression in E. coli” value read?
**A.** not soluble

**Q.** For “KEAIVFSQKTTIDQLHNSLNAASKTGNSNEVLQDPHIGDMYGSVTPLRPQVTRMLGKYAKEKEDMLSLRQVLANAERSYNQLMDRAAN”, which “soluble on expression in E. coli” value is on record?
**A.** soluble

**Q.** Which “soluble on expression in E. coli” value does the source give for “KEELESIINSSPVIVFLWKYEEGWPIEFVSENVTRLGYEVEDFTSRKILYGNIVYPGDLEKVERELARNIEFGCEDYSSEYRILTKSGEVRWVDERTFIQRDEKGEIRLQGIILDIT” here?
**A.** not soluble

**Q.** With “KEQILSSEQLARKMMLELGDKKQEHLVAIYMDTQNRIIEQRTIFIGTVRRSVAEPREILHYACKNMATSLIIIHNHPSGSPKPSESDLSFTKKIKRSCDHLGIVCLDHIIVGKNKYYSFREEADI” as the sequence, how does the “soluble on expression in E. coli” value read?
**A.** not soluble

**Q.** Which “soluble on expression in E. coli” value does the source give for “KFVSDVEKEMETLVEAVNKGKNSKKSHSFPPMNRDHRRIIHDLAQVYGLESVSYDSEPKRNVVVTAIR” here?
**A.** soluble

**Q.** For “KGLAIAADYRNAYRVGGDYYDFIPSNYDRIRSQDDPKLVQCVPWSIVIGDVMGKGVPAGLIMTMTRGMLRAEVLNRHSPAKILEHLNRVMYADLDNSHRFVTLFYSEYDPKTRTLSYSNAAHHPPLLWRAQTQNIEPLDTQGMLIGLDLDSSYEDAKVVLEVGDIILYYTDGFTDAVNSHGDRFDEENLVRVFQNACQNCQTPEAIVQELFTQVEKFTYPKVRGGDDMTLVVVQVQSEAIESHLCQHHDC”, which “soluble on expression in E. coli” value is on record?
**A.** not soluble

**Q.** With “KIGYGKANPTTRLWVGGLGPNTSLAALAREFDRFGSIRTIDHVKGDSFAYIQYESLDAAQAACAKMRGFPLGGPDRRLRVDFAK” as the sequence, how does the “soluble on expression in E. coli” value read?
**A.** soluble

**Q.** With “KILDACCGSRMFWFDKQNDQVLFMDNRKHYEKLESGHIVAVNPNIVADFRKMPFDDNSFYHVVFDPPHLLRAGSNSWLAKKYGKLNEQTWKEDIQKGFSECMRVLKPNGTLVFKWNEDQIKLSEILSIIDYEPLYGNKRAKTHWLVFMKESEENESNG” as the sequence, how does the “soluble on expression in E. coli” value read?
**A.** soluble

**Q.** With “KKAITCGEKEKQDLIKSLAMLKDGFRTDRGSHSDLWSSSSSLESSSFPLPKQYLDVSSQTDISGSFGINSNNQLAEKVRLRLRYEEAKRRIANLKIQLAKLDSEAWPGVLDSERDRLILINEKEELLKEMRFISPRKWTQGEVEQLEMARKRLEKDLQAARDTQSKALTERLKLNSKRNQLVRELEEATRQVATLHSQLKSLSSSMQSLSSGSSPGSLTSSRGSLVASSLDSSTSASFTDLYYDPFEQLDSELQSKVEFLLLEGATGFRPSGCITTIHEDEVAKTQKAEGGGRLQALRSLSGTPKSMTSLSPRSSLSSPSPPCSPLMADPLLAGDAFLNSLEFEDPELSATLCELSLGNSAQERYRLEEPGTEGKQLGQAVNTAQGCGLKVACVSAAVSDESVAGDSGVYEASVQRLGASEAAAFDSDESEAVGATRIQIALKYDEKNKQFAILIIQLSNLSALLQQQDQKVNIRVAVLPCSESTTCLFRTRPLDASDTLVFNEVFWVSMSYPALHQKTLRVDVCTTDRSHLEECLGGAQISLAEVCRSGERSTRWYNLLSYKYLKKQSRELKPVGVMAPASGPASTDAVSALLEQTAVELEKRQEGRSSTQTLEDSWRYEETSENEAVAEEEEEEVEEEEGEEDVFTEKASPDMDGYPALKVDKETNTETPAPSPTVVRPKDRRVGTPSQGPFLRGSTIIRSKTFSPGPQSQYVCRLNRSDSDSSTLSKKPPFVRNSLERRSVRMKRPSSVKSLRSERLIRTSLDLELDLQATRTWHSQLTQEISVLKELKEQLEQAKSHGEKELPQWLREDERFRLLLRMLEKRMDRAEHKGELQTDKMMRAAAKDVHRLRGQSCKEPPEVQSFREKMAFFTRPRMNIPALSADDV” as the sequence, how does the “soluble on expression in E. coli” value read?
**A.** soluble

**Q.** For “KKPDTLWVNKRVVKCPEEVAQQLAVEAGSDVFLLKRIRYVDEEAVSIEESWVPAHLIHDVDAIGISLYDYFRSQHIYPQRTRSRVSARMPDAEFQSHIQLDSKIPVLVIKQVALDQQQRPIEYSISHCR”, which “soluble on expression in E. coli” value is on record?
**A.** not soluble

**Q.** Which “soluble on expression in E. coli” value does the source give for “KLKPYNSEKILKYAEEVKSLYEKQSEENQEAYLQSIAKLGYEIYIVDDQKNGKRIGNAFRKTSISDDTVHKVLQGETFNGVSTYPTRLFITGFFDNELINSVGVPVKHGDKQYALFIRPDIQNQFGEMR” here?
**A.** not soluble

**Q.** For “KLLAITSCPNGIAHTYMAAENLQKAADRLGVSIKVETQGGIGVENKLTEEEIREADAIIIAADRSVNKDRFIGKKLLSVGVQDGIRKPEELIQKALNGDIPVY”, which “soluble on expression in E. coli” value is on record?
**A.** soluble

**Q.** For “KMFFKVIDTLSDNYEKEMLLLEAEAKEQYYQELEKSSREVRKIKHDLKNMLLAICGKAKKQNEISEEIYKIIKELDESDKKIYTSNVVINTIINHKISQAKKLEIKTDVNIKVSKAIHIDYKDAGILLGNILDNAIEACEKIKKKERWIKIDMLHNKNTLFIEVCNSKGKELTNISKSSKSDAHNHGIGISSIKAITKKYDGYVEFVDKGEEFEVVVNLYGMSF”, which “soluble on expression in E. coli” value is on record?
**A.** not soluble

**Q.** Which “soluble on expression in E. coli” value does the source give for “KMPSPYSHKEFVKEIAPTAQKLSKIYGVRSSIIIGQAALDSHFGSTLLASKYHNLFSIEASPGQGAVRLKSHEYKNGRWQEVTNRYLVYESWKESLYDYMAILHGNKIWDKALYTTMMTSSGYKTVARALQAAGFNSDPNYADKLIAVIEENNL” here?
**A.** soluble

**Q.** Which “soluble on expression in E. coli” value does the source give for “KPEPTNSSVEVSPDIYQQVRDELKRASVSQAVFARVAFNRTQGLLSEILRKEEDPRTASQSLLVNLRAMQNFLNLPEVERDRIYQDER” here?
**A.** soluble
